Data reported in the supplement of paper PMC9732359.
± gives the uncertainty stated by the source.

Experiment: protein stability index of a GFP-peptide fusion (yeast GPS) (PSI 1-4); higher = more stable; sorted into four equal gates, so the index is relative within each strain
In short: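 Plasmids isolated from each sorting gate were PCR-amplified and Illumina-sequenced, and barcodes assigned the reads to strains. The gates, four of equal size, were set by GFP/Cherry fluorescence ratio on mid-log cultures in leucine-free medium. These cultures were yeast carrying a pooled library of tiled 17-residue yeast protein peptides fused downstream of GFP on a plasmid that also expresses Cherry. The protein stability index is the sum of every gate's read frequency times its gate number.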

Sequence	protein stability index (doa10∆)	protein stability index (pdr5∆)	protein stability index (san1∆)	protein stability index (ubr1∆)
NPSVKQGEVGAVFIVPK [SWP82]	3.23 ± 0.26	3.23 ± 0.15	3.28 ± 0.12	
ESKLKIDPDTKAPNAVV [RPB11]	2.24 ± 0.2	2.56 ± 0.22	2.62 ± 0.11	2.92 ± 0.14
IKEIINASKVISTPIIN [RPO31]	3.08 ± 0.11	1.88 ± 0.17	1.03 ± 0.18	1.53 ± 0.25
MDNPRKLSKILRTEYGW [SNU114]	3.11 ± 0.068	2.99 ± 0.081	2.91 ± 0.059	2.94 ± 0.066
DNNNGDDDDEDDDEIVM [SKP1]	3.04 ± 0.065	2.93 ± 0.052	2.89 ± 0.04	2.99 ± 0.048
SELFDEWFEQNNSEQDQ [ISW2]	2.49 ± 0.067	2.54 ± 0.071	1.44 ± 0.14	1.95 ± 0.051
TLDRNTAAETFKLFNKY [RPL8A]	3.03 ± 0.088	3.19 ± 0.068	3.08 ± 0.082	2.94 ± 0.066
NSITSGGLKSCDLDFPL [YDL116W/NUP84]	2.78 ± 0.078	3.11 ± 0.068	3.32 ± 0.072	3.2 ± 0.063
DTDKLPIKNRTSKSFSK [SIN4]	2.83 ± 0.1	2.85 ± 0.067	2.61 ± 0.11	2.92 ± 0.068
NNNNTNTQPSASGFGFG [YGR119C/NUP57]	3.22 ± 0.081	2.28 ± 0.059	2.51 ± 0.062	2.89 ± 0.036
IESNKLAGVLYESRNVA [RRP6]	2.93 ± 0.062	3.11 ± 0.074	3.07 ± 0.1	3.08 ± 0.062
VRLLCRSDGMGNVLLNA [YLR335W/NUP2]	1.94 ± 0.17	2.41 ± 0.13	2.02 ± 0.18	2.53 ± 0.12
EDSENPSDWQRNSFIRD [ITC1]	3.1 ± 0.082	3.12 ± 0.069	3.14 ± 0.065	3.27 ± 0.067
LISRLCPNSTGAELRSV [RPT1]	1.85 ± 0.043	1.77 ± 0.047	1.84 ± 0.073	1.73 ± 0.042
DNNYNTAETNNKVHETS [YDL088C/ASM4]	2.99 ± 0.078	2.92 ± 0.069	2.78 ± 0.052	2.81 ± 0.051
PSKKRRRDFGAPANKRP [SMD1]	2.57 ± 0.19	3.02 ± 0.1	3.16 ± 0.12	3.04 ± 0.09
VRSEMGEPIHKIATRGV [FAS1]	3.14 ± 0.29	3.14 ± 0.28		2.95 ± 0.089
LCHPKKEKYGLAVSTIL [SMC1]	2.29 ± 0.063	2.31 ± 0.063	2.23 ± 0.091	2.15 ± 0.048
DSNMDSISSVVSEDLLD [RPN4]	2.3 ± 0.073	2.31 ± 0.056	2.76 ± 0.05	2.45 ± 0.032
RKFHELNDHIDDFEVNV [GRR1]	3.07 ± 0.097	3.18 ± 0.1	2.42 ± 0.16	3.08 ± 0.073
DLEEVKRFQVLYPCYFD [SEC65]	2.28 ± 0.14	2.75 ± 0.088	2.42 ± 0.25	2.34 ± 0.12
FQQQQQQQQQQQQPQPQ [PGD1]	2.21 ± 0.11	2.7 ± 0.11	2.46 ± 0.2	3.05 ± 0.21
LSKFFFFIFVFNFVLLG [COB]	1.42 ± 0.13	1.19 ± 0.12	1.09 ± 0.25	1.22 ± 0.15
DFELEISWCSLSETNGL [PRE10]	2.92 ± 0.076	2.93 ± 0.094	2.84 ± 0.083	2.84 ± 0.069
ALPDVVVKGLPDISRAV [RPO31]	2.85 ± 0.13	2.74 ± 0.079	2.86 ± 0.072	3.08 ± 0.12
VNNTRRRVYNRVLETTL [BRN1]	2.5 ± 0.07	2.98 ± 0.094	2.87 ± 0.1	2.65 ± 0.11

Sequence	protein stability index (doa10∆)	protein stability index (pdr5∆)	protein stability index (san1∆)	protein stability index (ubr1∆)
SYLSNSLDTSASTINGA [YML103C/NUP188]	2.31 ± 0.058	1.78 ± 0.063	1.76 ± 0.065	1.84 ± 0.06
LNENARELEQIKPKIAL [SNF12]	3.23 ± 0.3	3 ± 0.23	2.64 ± 0.25	
LEQLAQHTTESDNISRK [RPB2]	3.33 ± 0.12	3.35 ± 0.12	3.01 ± 0.076	3.11 ± 0.13
FATNEERQMNFLTNELI [SWI3]	3.28 ± 0.1	2.32 ± 0.07	1.96 ± 0.14	2.62 ± 0.053
PLPLDLNVQVWHIEETG [ITC1]	1.87 ± 0.063	2.17 ± 0.059	2.18 ± 0.089	2.17 ± 0.071
IKNISNRVGLTLDNIDD [ARP9]	2.65 ± 0.24	3.03 ± 0.11	3.16 ± 0.091	3.32 ± 0.073
EEYKQLVKDRKFLREVF [RPO21]	3.32 ± 0.078	3.49 ± 0.076	2.81 ± 0.084	2.98 ± 0.11
VMDTIQEQITLYDHWDK [SSN8]	3.14 ± 0.12	2.96 ± 0.09	2.63 ± 0.095	2.82 ± 0.068
EKLAVSALEQAIIYQRG [YGL100W/SEH1]	2.04 ± 0.097	2.38 ± 0.11	2.11 ± 0.096	2.4 ± 0.12
QDPKTLVALLSRDLWCF [SSN2]	1.39 ± 0.057	1.34 ± 0.043	1.31 ± 0.15	1.54 ± 0.073
EPYHFISNYNTKYTDDM [SRB8]	2.96 ± 0.11	2.98 ± 0.07	3.01 ± 0.057	3.19 ± 0.1
YNGRGARERKTATYNDN [SNF2]	3 ± 0.069	2.54 ± 0.074	2.69 ± 0.074	2.69 ± 0.071
LRLRGGIIEPSLKALAS [RPL40A]	3.1 ± 0.046	3.02 ± 0.048	2.7 ± 0.048	3.02 ± 0.045
EDHIFFKYIYELILAGA [YDL116W/NUP84]	1.74 ± 0.07	1.98 ± 0.064	1.69 ± 0.089	1.66 ± 0.061
GAHGNSDPVCLFVCNKD [POP3]	3 ± 0.098	3.37 ± 0.12	3.07 ± 0.084	2.8 ± 0.059
LIVIDVVEGVTFVVEQL [SNU114]	1.57 ± 0.044	1.92 ± 0.061	2.56 ± 0.082	2.92 ± 0.04
RDDEPKLYQTEPSGIYS [PRE6]	3.14 ± 0.058	3.07 ± 0.082	3.09 ± 0.051	3.18 ± 0.046
LASRNKWDDLNEQLTLL [RPN5]	2.99 ± 0.09	3.4 ± 0.072	3.26 ± 0.056	3.12 ± 0.047
CISLSGVPNYLVQLEPH [SSN2]	1.85 ± 0.062	2.09 ± 0.08	2.29 ± 0.083	2.2 ± 0.065
MIVYYKDAISFIKEIHK [YCS4]	2.19 ± 0.092	1.84 ± 0.069	2.57 ± 0.11	2.26 ± 0.072
MNQSSIDRGLFRSLFFR [RPB2]	3.16 ± 0.16	2.97 ± 0.2	2.63 ± 0.26	2.94 ± 0.08
SNFTSIIGPNGSGKSNM [SMC1]	3.33 ± 0.13	3.04 ± 0.15	3.37 ± 0.12	3.46 ± 0.093
LTADYDALDIANRIGYI [RPL25]	3.33 ± 0.045	3.4 ± 0.062	3.54 ± 0.038	3.43 ± 0.052
HKSDVMSVDIDKKASMI [ASC1]	3 ± 0.1	2.79 ± 0.083	2.48 ± 0.082	2.87 ± 0.11
FAAIPEQGIELEHIDSK [FAS2]	3.17 ± 0.16	2.85 ± 0.21	3.39 ± 0.084	3.41 ± 0.1
